Data taken from US20240141041A1.

Target: CD52 (human) (UniProt P31358)
Test: cell-based or functional assay

depletion of infused CD4CAR T cells in mouse blood, 0.1 mg/kg CAMPATH, 6 h and 48 h: > 95%
Substance: CAMPATH (alemtuzumab) (antibody)
